According to article PMC3848040:

Substrate: Nc1ncnc2c1ncn2[C@@H]1O[C@H](COP(=O)(O)OP(=O)(O)OP(=O)(O)O)[C@@H](O)[C@H]1O
Test: purified protein
Conditions: phosphate donor; activity depends on divalent ions

B1: SGK196dTM (Homo sapiens) (protein)
chain: APRQSTVDPTHCPYGHFRIGQMKNCSPWLSCEELRTEVRQLKRVGEGAVKRVFLSEWKEHKVALSQLTSLEMKDDFLHGLQMLKSLQGTHVVTLLGYCEDDNTMLTEYHPLGSLSNLEETLNLSKYQNVNTWQHRLELAMDYVSIINYLHHSPVGTRVMCDSNDLPKTLSQYLLTSNFSILANDLDALPLVNHSSGMLVKCGHRELHGDFVAPEQLWPYGEDVPFHDDLMPSYDEKIDIWKIPDISSFLLGHIEGSDMVRFHLFDIHKACKSQTPSERPTAQDVLETYQKVLDTLRDAMMSQAREML
Km: 4.1 ± 1.4 µM
